Assay results published in IntAct's records for PubMed 23063561.

B1: 1-phosphatidylinositol 4,5-bisphosphate phosphodiesterase gamma-1 (Homo sapiens), P19174 (parent)
chain: MAGAASPCANGCGPGAPSDAEVLHLCRSLEVGTVMTLFYSKKSQRPERKTFQVKLETRQITWSRGADKIEGAIDIREIKEIRPGKTSRDFDRYQEDPAFRPDQSHCFVILYGMEFRLKTLSLQATSEDEVNMWIKGLTWLMEDTLQAPTPLQIERWLRKQFYSVDRNREDRISAKDLKNMLSQVNYRVPNMRFLRERLTDLEQRSGDITYGQFAQLYRSLMYSAQKTMDLPFLEASTLRAGERPELCRVSLPEFQQFLLDYQGELWAVDRLQVQEFMLSFLRDPLREIEEPYFFLDEFVTFLFSKENSVWNSQLDAVCPDTMNNPLSHYWISSSHNTYLTGDQFSSESSLEAYARCLRMGCRCIELDCWDGPDGMPVIYHGHTLTTKIKFSDVLHTIKEHAFVASEYPVILSIEDHCSIAQQRNMAQYFKKVLGDTLLTKPVEISADGLPSPNQLKRKILIKHKKLAEGSAYEEVPTSMMYSENDISNSIKNGILYLEDPVNHEWYPHYFVLTSSKIYYSEETSSDQGNEDEEEPKEVSSSTELHSNEKWFHGKLGAGRDGRHIAERLLTEYCIETGAPDGSFLVRESETFVGDYTLSFWRNGKVQHCRIHSRQDAGTPKFFLTDNLVFDSLYDLITHYQQVPLRCNEFEMRLSEPVPQTNAHESKEWYHASLTRAQAEHMLMRVPRDGAFLVRKRNEPNSYAISFRAEGKIKHCRVQQEGQTVMLGNSEFDSLVDLISYYEKHPLYRKMKLRYPINEEALEKIGTAEPDYGALYEGRNPGFYVEANPMPTFKCAVKALFDYKAQREDELTFIKSAIIQNVEKQEGGWWRGDYGGKKQLWFPSNYVEEMVNPVALEPEREHLDENSPLGDLLRGVLDVPACQIAIRPEGKNNRLFVFSISMASVAHWSLDVAADSQEELQDWVKKIREVAQTADARLTEGKIMERRKKIALELSELVVYCRPVPFDEEKIGTERACYRDMSSFPETKAEKYVNKAKGKKFLQYNRLQLSRIYPKGQRLDSSNYDPLPMWICGSQLVALNFQTPDKPMQMNQALFMTGRHCGYVLQPSTMRDEAFDPFDKSSLRGLEPCAISIEVLGARHLPKNGRGIVCPFVEIEVAGAEYDSTKQKTEFVVDNGLNPVWPAKPFHFQISNPEFAFLRFVVYEEDMFSDQNFLAQATFPVKGLKTGYRAVPLKNNYSEDLELASLLIKIDIFPAKENGDLSPFSGTSLRERGSDASGQLFHGRAREGSFESRYQQPFEDFRISQEHLADHFDSRERRAPRRTRVNGDNRL

Variants of: B1
Conditions: with fgfr1_human FGFR1, P11362
Chain of fgfr1_human FGFR1, P11362 (P11362 whole entry, looked up): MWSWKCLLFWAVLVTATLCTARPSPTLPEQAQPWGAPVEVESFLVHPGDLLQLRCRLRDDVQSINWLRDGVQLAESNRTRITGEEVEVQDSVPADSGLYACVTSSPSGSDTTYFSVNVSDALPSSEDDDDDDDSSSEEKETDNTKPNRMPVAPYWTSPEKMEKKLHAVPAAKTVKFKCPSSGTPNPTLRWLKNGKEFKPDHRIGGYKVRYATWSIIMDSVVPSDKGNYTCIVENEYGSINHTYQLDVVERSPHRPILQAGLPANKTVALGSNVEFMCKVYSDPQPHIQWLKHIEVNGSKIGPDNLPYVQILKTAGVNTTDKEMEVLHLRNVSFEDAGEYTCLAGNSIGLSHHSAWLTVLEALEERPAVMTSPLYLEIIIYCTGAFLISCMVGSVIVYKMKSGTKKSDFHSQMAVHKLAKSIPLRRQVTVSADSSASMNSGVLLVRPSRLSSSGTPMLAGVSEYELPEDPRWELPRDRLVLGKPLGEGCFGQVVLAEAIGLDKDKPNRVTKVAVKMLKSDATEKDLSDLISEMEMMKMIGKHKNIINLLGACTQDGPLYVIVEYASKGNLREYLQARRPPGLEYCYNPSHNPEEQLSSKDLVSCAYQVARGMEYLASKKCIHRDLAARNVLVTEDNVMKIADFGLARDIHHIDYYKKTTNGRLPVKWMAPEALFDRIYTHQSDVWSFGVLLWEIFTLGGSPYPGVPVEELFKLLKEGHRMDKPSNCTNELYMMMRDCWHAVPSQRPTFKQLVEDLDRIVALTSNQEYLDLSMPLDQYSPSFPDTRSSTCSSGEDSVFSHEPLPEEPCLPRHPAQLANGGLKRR

effect of a mutation on the interaction | Variant
disrupting interaction strength | R586L

Variants of: B1
Conditions: with fgfr1_human FGFR1, P11362
Remark: another data set of the same source

effect of a mutation on the interaction | Variant
increasing interaction strength | Y783F
